Assay results taken from article PMC4686714.

Target: ENPP1-Fc fusion protein (not stated | not stated (human or mouse cDNA cloned)) (UniProt P22413)
Experiment: SEC-MALS; SEC-MALLS/UV/RI, Superose 6 10/30 HR column, PBSplus buffer, 0.3 ml/min; ENPP1-Fc at 100 nM to 1 uM measured at the apex of the eluting peak; three detector approach

ENPP1-Fc fusion protein (from UniProt P22413 98-925)
stoichiometry N: 2
